Data: patent US20100022459A1 (TEL AVIV UNIVERSITY FUTURE TECHNOLOGY DEVELOPMENT L P, published 2010)
Ends that are not written are not given here. cellulose membrane = cellulose membrane support bound via the C-terminal amino acid

Target: MBP (UniProt P0AEX9 27-392 = MBP)
Assay: hIAPP peptide array incubated with MBP alone, immunoblot
Procedure: The cellulose membrane was then washed repeatedly with 0.05% Tween 20 in TBS. […] HRP-conjugated goat anti mouse antibodies (Jackson Laboratories, USA) were used as a secondary antibody. Immunoblots were developed using the Renaissance western blot Chemiluminescence Reagent (NEN, USA) according to Manufacturer's instructions and signal was quantified using densitometry. Regeneration of the cellulose membrane for reuse was carried out by sequential washing with Regeneration buffer I including 62.5 mM Tris, 2% SDS, 100 Mm 2-mercaptoethanol, pH 6.7, and Regeneration buffer II including 8 M urea, 1% SDS, 0.1% 2-mercaptoethanol. Efficiency of the washing steps was monitored by contacting the membrane with the chemiluminescence reagent, as described.

Binder | binding result
Ac-HSSNNFGAIL-{cellulose membrane} (61-88; also called decamer of the hIAPP peptide array) [hIAPP18-27] | no binding
Ac-NFGAILSSTN-{cellulose membrane} (61-88; also called decamer of the hIAPP peptide array) [hIAPP22-31] | no binding
Ac-KCNTATCATQ (cysteine pairing not given here; also: C-terminal residue bound to cellulose membrane, 61-88 (hIAPP1-10 ... hIAPP28-37); also called decamer of the hIAPP peptide array) [hIAPP1-10] | no binding
Ac-AILSSTNVGS-{cellulose membrane} (61-88; also called decamer of the hIAPP peptide array) [hIAPP25-34] | no binding
Ac-FGAILSSTNV-{cellulose membrane} (61-88; also called decamer of the hIAPP peptide array) [hIAPP23-32] | no binding
Ac-ILSSTNVGSN-{cellulose membrane} (61-88; also called decamer of the hIAPP peptide array) [hIAPP26-35] | no binding
Ac-LANFLVHSSN (also: C-terminal residue bound to cellulose membrane, 61-88; also called decamer of the hIAPP peptide array) [hIAPP12-21] | no binding
Ac-VHSSNNFGAI-{cellulose membrane} (61-88; also called decamer of the hIAPP peptide array) [hIAPP17-26] | no binding
Ac-LSSTNVGSNT-{cellulose membrane} (61-88; also called decamer of the hIAPP peptide array) [hIAPP27-36] | no binding
Ac-NFLVHSSNNF-{cellulose membrane} (61-88; also called decamer of the hIAPP peptide array) [hIAPP14-23] | no binding
Ac-SSNNFGAILS (also: C-terminal residue bound to cellulose membrane, 61-88; also called decamer of the hIAPP peptide array) [hIAPP19-28] | no binding
Ac-CATQRLANFL (also: C-terminal residue bound to cellulose membrane, 61-88; also called decamer of the hIAPP peptide array) [hIAPP7-16] | no binding
Ac-CNTATCATQR (cysteine pairing not given here; also: C-terminal residue bound to cellulose membrane, 61-88; also called decamer of the hIAPP peptide array) [hIAPP2-11] | no binding
Ac-ATCATQRLAN-{cellulose membrane} (61-88; also called decamer of the hIAPP peptide array) [hIAPP5-14] | no binding
Ac-NTATCATQRL (also: C-terminal residue bound to cellulose membrane, 61-88; also called decamer of the hIAPP peptide array) [hIAPP3-12] | no binding
Ac-TATCATQRLA-{cellulose membrane} (61-88; also called decamer of the hIAPP peptide array) [hIAPP4-13] | no binding
Ac-ATQRLANFLV (also: C-terminal residue bound to cellulose membrane, 61-88; also called decamer of the hIAPP peptide array) [hIAPP8-17] | no binding
Ac-QRLANFLVHS (also: C-terminal residue bound to cellulose membrane, 61-88; also called decamer of the hIAPP peptide array) [hIAPP10-19] | no binding
Ac-TCATQRLANF-{cellulose membrane} (61-88; also called decamer of the hIAPP peptide array) [hIAPP6-15] | no binding
Ac-RLANFLVHSS (also: C-terminal residue bound to cellulose membrane, 61-88; also called decamer of the hIAPP peptide array) [hIAPP11-20] | no binding
Ac-NNFGAILSST (also: C-terminal residue bound to cellulose membrane, 61-88; also called decamer of the hIAPP peptide array) [hIAPP21-30] | no binding
Ac-GAILSSTNVG-{cellulose membrane} (61-88; also called decamer of the hIAPP peptide array) [hIAPP24-33] | no binding
Ac-TQRLANFLVH (also: C-terminal residue bound to cellulose membrane, 61-88; also called decamer of the hIAPP peptide array) [hIAPP9-18] | no binding
Ac-SSTNVGSNTY-{cellulose membrane} (61-88; also called decamer of the hIAPP peptide array) [hIAPP28-37] | no binding
Ac-LVHSSNNFGA-{cellulose membrane} (61-88; also called decamer of the hIAPP peptide array) [hIAPP16-25] | no binding
Ac-ANFLVHSSNN-{cellulose membrane} (61-88; also called decamer of the hIAPP peptide array) [hIAPP13-22] | no binding
Ac-FLVHSSNNFG-{cellulose membrane} (61-88; also called decamer of the hIAPP peptide array) [hIAPP15-24] | no binding
